These are literature values, as cited in patent US6759384B1, “Factor Xa inhibitors” (Aventis Pharmaceuticals Inc., priority 1994, dated 2004).

In this series the target is factor Xa. The following applies: background section.

B1: ATS: antistasin, protein inhibitor of factor Xa isolated from the leech Haementerin officinalis, 119 amino acids (protein, UniProt P15358 18-136, looked up)
Antistasin: QGPFGPGCEEAGCPEGSACNIITDRCTCSGVRCRMHCPHGFQRSRYGCEFCKCRLEPMKATCDISECPEGMMCSRLTNKCDCKIDINCRKTCPNGLKRDKLGCEYCECRPKRKLIPRLS
As usually defined, the Ki is a measure of affinity in units of concentration, obtained from inhibition or displacement. Regarding B1, the Ki is 0.05 nM.
